The record followed here is US20170202915A1 (TUFTS UNIVERSITY, published 2017).

In one assay the target is T1, recombinant galectin-3 (UniProt P17931 2-250).
T1 construct: also called Gal-3
As to the kind of experiment: galectin-agarose pulldown from LEC lysates, anti-PDPN western blot (FIG. 7A).

The target in another assay is T2, VEGFR-1 (UniProt P17948 27-1338, limits assumed).
T2 construct: whole, on cells
As to the kind of experiment: galectin-agarose pulldown from primary LECs, western blot (FIG. 21A). (Immunoblotting shows a protein as a band on a membrane.)

T2 sequence (P17948 27-1338 limits assumed): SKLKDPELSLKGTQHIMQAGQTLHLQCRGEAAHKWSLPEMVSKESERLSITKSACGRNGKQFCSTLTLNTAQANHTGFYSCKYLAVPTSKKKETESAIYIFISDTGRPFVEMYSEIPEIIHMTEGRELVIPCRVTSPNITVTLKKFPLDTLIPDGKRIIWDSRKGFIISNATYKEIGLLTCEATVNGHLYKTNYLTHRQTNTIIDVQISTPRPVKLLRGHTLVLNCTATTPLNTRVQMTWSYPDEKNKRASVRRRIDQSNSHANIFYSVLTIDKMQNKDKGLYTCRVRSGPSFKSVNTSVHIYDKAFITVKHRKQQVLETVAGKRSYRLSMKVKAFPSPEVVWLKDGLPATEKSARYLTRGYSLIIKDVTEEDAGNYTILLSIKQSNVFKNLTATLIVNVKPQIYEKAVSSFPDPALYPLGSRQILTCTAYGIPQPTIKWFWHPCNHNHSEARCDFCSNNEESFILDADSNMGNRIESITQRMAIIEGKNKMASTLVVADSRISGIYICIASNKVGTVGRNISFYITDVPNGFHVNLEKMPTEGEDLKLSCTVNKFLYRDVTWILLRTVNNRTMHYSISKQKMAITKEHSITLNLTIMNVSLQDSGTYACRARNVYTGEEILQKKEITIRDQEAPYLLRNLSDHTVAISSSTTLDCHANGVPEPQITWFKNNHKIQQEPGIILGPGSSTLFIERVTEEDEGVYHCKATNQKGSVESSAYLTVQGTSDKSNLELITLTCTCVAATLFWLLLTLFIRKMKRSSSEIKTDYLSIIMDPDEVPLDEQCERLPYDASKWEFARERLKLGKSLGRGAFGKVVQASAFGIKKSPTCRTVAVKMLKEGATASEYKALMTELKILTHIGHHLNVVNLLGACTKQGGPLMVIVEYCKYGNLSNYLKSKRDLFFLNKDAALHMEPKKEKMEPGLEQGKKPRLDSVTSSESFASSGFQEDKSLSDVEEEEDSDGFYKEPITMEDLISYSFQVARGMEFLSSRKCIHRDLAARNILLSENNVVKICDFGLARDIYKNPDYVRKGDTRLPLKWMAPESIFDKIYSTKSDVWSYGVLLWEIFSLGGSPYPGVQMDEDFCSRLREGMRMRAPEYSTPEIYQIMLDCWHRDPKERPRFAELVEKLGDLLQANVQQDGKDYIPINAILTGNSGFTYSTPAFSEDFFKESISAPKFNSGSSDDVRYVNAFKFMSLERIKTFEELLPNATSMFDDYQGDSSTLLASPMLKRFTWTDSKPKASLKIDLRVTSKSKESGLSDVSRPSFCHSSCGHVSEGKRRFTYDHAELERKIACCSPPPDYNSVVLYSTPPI
T1 sequence (P17931 2-250 limits assumed): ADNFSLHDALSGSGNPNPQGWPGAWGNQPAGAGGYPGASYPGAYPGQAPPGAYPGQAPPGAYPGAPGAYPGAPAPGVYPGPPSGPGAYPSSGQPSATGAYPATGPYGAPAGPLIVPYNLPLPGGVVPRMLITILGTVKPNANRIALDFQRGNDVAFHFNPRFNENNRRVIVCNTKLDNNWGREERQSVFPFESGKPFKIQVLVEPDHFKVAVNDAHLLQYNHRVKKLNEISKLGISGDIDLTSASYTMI
Protocol for VEGFR-1: Primary LECs were incubated with agarose beads (control), and galectin-conjugated agarose beads at 4° C. overnight. Unbound proteins were removed and the bound proteins were eluted with 20 μL of 2× Laemmli sample buffer and analyzed and compared to control input by western blotting. […] LEC lysates incubated with unconjugated beads served as a negative control.
Protocol for recombinant galectin-3: Bound proteins were examined and were compared to total cell lysates (input) by western blot using anti-PDPN. […] Primary LECs were transfected with control (mock) or two siRNA that targeted different regions of PDPN. Knockdown efficiency was assessed by western blot using anti-PDPN and anti-β-actin antibodies. […] Primary LECs were transfected with control or PDPN siRNA. […] Data are plotted as mean±SEM and analyzed using Student's t test (FIG. 7C and FIG. 7F). *P<0.05, ***P<0.001 vs corresponding control.
Bound proteins were examined with total cell lysates (input) by western blot using an anti-PDPN antibody.

B1: podoplanin (receptor, human, UniProt Q86YL7 23-162, looked up)
chain: ASTGQPEDDTETTGLEGGVAMPGAEDDVVTPGTSEDRYKSGLTTLVATSVNSVTGIRIEDLPTSESTVHAQEQSPSATASNVATSHSTEKVDGDTQTTVEKDGLSTVTLVGIIVGVLLAIGFIGAIIVVVMRKMSGRYSP
modifications: O-glycosylated with alpha2,3-sialyl glycans
notes: whole, on cells; Endogenous protein from LEC lysates in the pulldowns and co-immunoprecipitation; also called PDPN
Take B1: the binding result with recombinant galectin-3 was “no binding”.

B2: recombinant full-length galectin-8 (other, UniProt O00214 1-317, looked up)
chain: MMLSLNNLQNIIYNPVIPFVGTIPDQLDPGTLIVIRGHVPSDADRFQVDLQNGSSMKPRADVAFHFNPRFKRAGCIVCNTLINEKWGREEITYDTPFKREKSFEIVIMVLKDKFQVAVNGKHTLLYGHRIGPEKIDTLGIYGKVNIHSIGFSFSSDLQSTQASSLELTEISRENVPKSGTPQLRLPFAARLNTPMGPGRTVVVKGEVNANAKSFNVDLLAGKSKDIALHLNPRLNIKAFVRNSFLQESWGEEERNITSFPFSPGMYFEMIIYCDVREFKVAVNGVHSLEYKHRFKELSSIDTLEINGDIHLLEVRSW
notes: mature; Tandem-repeat lectin with an N-CRD and a C-CRD; also called Gal-8; exogenous Gal-8
Take B2: the binding result with VEGFR-1 is listed as “no binding”.
